Measurements reported in patent US20050053990.

Columns and labels:
Assay in all cases: cleavage_in_vitro
AvaII = settings: DNA strand 100% cleaved; NEBuffer 4 (Mg2+), 37 C, 4 h; Table 1 does not name the oligos
BtsI = settings: DNA strand 100% cleaved
Sau3AI = settings: DNA strand 0% cleaved
SfaNI = settings: DNA strand 100% cleaved
Cac8I = settings: DNA strand 100% cleaved; NEBuffer 3, 37 C, 4 h; Table 1 does not name the oligos

**Q.** Which activity (% RNA strand cleaved) (AvaII) does the source give for “AAAGCUAAGCGGACCGAGUCGACUGCAUCGUCAUGAAAAAA / TTTTTTCATGACGATGCAGTCGACTCGGTCCGCTTAGCTTT [A/B RNA/DNA duplex]” here?
**A.** Its activity (% RNA strand cleaved) is 100.

**Q.** BtsI site RNA/DNA duplex was tested. Which activity (% RNA strand cleaved) (BtsI) did it give?
**A.** The activity (% RNA strand cleaved) was 70.

**Q.** Which activity (% RNA strand cleaved) (Sau3AI) does the source give for Sau3AI site RNA/DNA duplex here?
**A.** The activity (% RNA strand cleaved) was 80.

**Q.** How did the activity (% RNA strand cleaved) (SfaNI) turn out when SfaNI site RNA/DNA duplex was run?
**A.** Its activity (% RNA strand cleaved) is 100.

**Q.** Which activity (% RNA strand cleaved) (Cac8I) does the source give for “UAAAGGCGCGCCCGCAUGCUUUA / TAAAGCATGCGGGCGCGCCTTTA [I/L RNA/DNA duplex]” here?
**A.** The activity (% RNA strand cleaved) was 100.
